Measurements published in paper doi:10.1101/2020.10.27.356691 (bioRxiv, 2020).

Molecular target: T1, cytochrome P450 CYP124 from Mycobacterium tuberculosis (Mycobacterium tuberculosis, UniProt P9WPP3 1-428)
T1 sequence: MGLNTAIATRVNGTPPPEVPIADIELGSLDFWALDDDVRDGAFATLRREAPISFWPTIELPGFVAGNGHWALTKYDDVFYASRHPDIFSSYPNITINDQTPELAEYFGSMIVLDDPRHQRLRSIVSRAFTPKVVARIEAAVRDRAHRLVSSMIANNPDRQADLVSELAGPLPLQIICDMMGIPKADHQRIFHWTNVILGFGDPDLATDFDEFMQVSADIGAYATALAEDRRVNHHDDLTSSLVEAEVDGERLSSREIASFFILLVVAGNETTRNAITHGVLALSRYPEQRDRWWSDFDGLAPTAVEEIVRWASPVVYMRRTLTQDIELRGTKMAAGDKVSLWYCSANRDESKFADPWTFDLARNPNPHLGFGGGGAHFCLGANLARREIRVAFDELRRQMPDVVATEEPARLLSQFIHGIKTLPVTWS
Assay: ITC

B1: rubredoxin B (RubB) from Mycobacterium tuberculosis, wild type (natural protein)
chain: MNDYKLFRCIQCGFEYDEALGWPEDGIAAGTRWDDIPDDWSCPDCGAAKSDFEMVEVARS
Kd: 12.8 µM
